Numbering of substitutions follows the chain as printed. Numbers in names are those of the source.
Target: the molecule itself
Assay: crystal structure

B1: TmCdsA S200C/S223C double-cysteine mutant (enzyme, Thermotoga maritima, UniProt Q9X1B7 1-270, looked up)
chain: MDDLKTRVITASVVAPFVVLCFVSYESLIGLVSAILILAGYELITLEMKERDARFFYVILLALYPVLYGLVFEEPTQPLSILFITGVVFSLITDKDPSQVFKTVAAFSIALIYVTFFLSFFLPIYRDFGAANALLVLTSTWVFDSFAYFTGLKFGRTRISPRYSPRKSLEGVIGGFLGVVIYTFLYRLVVNDLLSVNVICFRTFLPFAATVAIMDTFGDIFECALKRHYGVKDSGKTLPGHGGMLDRIDGLLFVAPVSYIVFKILEGVVR
modifications: mercury labels (CH3HgCl) bound to the endogenous and engineered Cys residues in the crystal
**Q.** Does B1 bind?
**A.** binds

B2: TmCdsA S200C/S258C double-cysteine mutant (enzyme, Thermotoga maritima, UniProt Q9X1B7 1-270, looked up)
chain: B1 chain with C223S, S258C
**Q.** Does B2 bind?
**A.** binds

— article PMC4083444 (Nature Communications, 2014)
